Measured values published in US20230279105A1 (SINGLE CELL TECHNOLOGY, published 2023).

B1: SCT-Fa158 (antibody, V domains shown)
VH: QVQLQQPGTELVKPGASVKVSCKASGYTFISYWMHWVKQRPGQGLEWIGNIDPNSGTTNYNEKFKTKATLTVDKSSSTAYMQLSSLTSEDSAVYYCARWGWDGFAYWGQGTLVTVSA
VL: DAVMTQTPLSLPVSLGDQASISCRSSQSLENSNGNTYLNWYLQKPGQSPQLLIYRVSTRFSGVLDRFSGSGSGTDFTLKISRVEAEDLGVYFCLQVTHVPYTFGGGTKLEIK
notes: murine IgG
B2: SCT-Fa152 (antibody, V domains shown)
VH: QVQLQQPGTELVKPGASVKVSCKASGYTFISYCMHWVKQRPGQGLDWIGNIDPNNGGPNYNEKFKTKATLTVDKSSSTAYMQLSSLTSEDSAVYYCARWGWDGFAYWGQGTLVTVSA
VL: DAVMTQTPLSLPVSLGDQASISCRSSQSLENSNGNTYLNWYLQKPGQSPQLLIYRVSNRFSGVLDRFSGSGSGTDFTLKISRVEAEDLGVYFCLQVTHVPYTFGGGTKLEIK
notes: murine IgG
B3: SCT-Fa156 (antibody, V domains shown)
VH: QVQLQQPGTELVKPGASVKVSCKASGYTFISYWMHWVKQRPGQGLEWIGNIDPNSGGTNYNEKFKSKAILTVDKSSSTAYMQLSSLTSEDSAVYYCTRWGWDGFAYWGQGTLVTVSA
VL: DAVMTQTPLSLPVSLGDQVSISCRSSQSLENSNGNTYLNWYLQKPGQSPQLLIYRISTRFSGVLDRFSGSGSGTDFTLKISRVEAEDLGVYFCLQVTHVPYTFGGGTKLEIK
notes: murine IgG
B4: SCT-Fa155 (antibody, V domains shown)
VH: QVQLQQPGTELVKPGASVKVSCKASGYTFISYWMHWVKQRPGQGLEWIGNIDPNSGGTNYNEKFKSKAILTVDKSSSTAYMQLSSLTSEDSAVYFCARWGWDGFAYWGQGTLVTVSA
VL: DVVMTQTPLSLPVSLGDQASISCRSSQSLENSNGNTYLNWYLQKPGQSPQLLIYRISTRFSGVLDRFSGSGSGTDFTLKISRVEAEDLGVYFCLQVTHVPYTFGGGTKLEIK
notes: murine IgG
B5: SCT-Fa154 (antibody, V domains shown)
VH: QVQLQQPGTELVKPGASVKVSCKASGYTFISYWMHWVKQRPGQGLEWIGNIDPNSGGTKYNEKFKSKAILTVDKSSSTAYMQLSSLTSEDSAVYYCTRWGWDGFAYWGQGTLVTVSA
VL: DAVMTQTPLSLPVSLGDQVSISCRSSQSLENSNGNTYLNWYLQKPGQSPQLLIYRISTRFSGVLDRFSGSGSGTDFTLKISRVEAEDLGVYFCLQVTHVPYTFGGGTKLEIK
notes: murine IgG
B6: SCT-Fa157 (antibody, V domains shown)
VH: QVQLQQPGTELVKPGASVKVSCKASGYTFISYWMHWVKQRPGQGLEWIGNIDPNSGITNYNEKFKSKAILTVDKSSSTAYMQLSSLTSEDSAVYYCARWGWDGFAYWGQGTLVTVSA
VL: DVVMTQTPLSLPVSLGDQASISCRSSQSLENSNGNTYLNWYLQKPGQSPQLLIYRISTRFSGVLDRFSGSGSGTDFTLKISRVEAEDLGVYFCLQVTHVPYTFGGGTKLEIK
notes: murine IgG
B7: SCT-Fa153 (antibody, V domains shown)
VH: QVQLQQPGTELVKPGASVKVSCKASGYTFISYWMHWVKQRPGQGLDWIGNIDPNNGGTNYNEKFKSKATLTVDKSSSTAYMQLSSLTSEDSAVYYCARWGWDGFAYWGQGTLVTVSA
VL: DAVMTQTPLSLPVSLGDQASISCRSSQSLENSYGNTYLNWYLQKPGQSPQLLIYRVSTRFSGVLDRFSGSGSGTDFTLKISRVEAEDLGVYFCLQVTHVPYTFGGGTKLEIK
notes: murine IgG
B8: SCT-Fa144 (antibody, V domains shown)
VH: QVQLQQPGAELVTPGASVKLSCKASGYTFTTYWMHWVKQRPGQGLEWIGEIDPSDSYRNYNQKFKGKATLTVDKSSSTAYMQLSSLTSEDSAVYYCARNYGSNYVGYFDYWGQGTALTVSS
VL: DIQMTQTTSSLSASLGDRVTISCRASQDITNYLNWYQQRPDGTVKLLIYYTSRLHSGVPSRFSGSGSGTDYSLTISNLAQGDIATYFCQQASTLPWTFGGGTKLDIK
notes: murine IgG
B9: SCT-Fa136 (antibody, V domains shown)
VH: QVQLQQPGAELVRPGTSVKLSCKASGYTFINYWMHWVKQRPGQGLEWIGVIDPSHTSTSYNQKFKGKATLTVDTSSTTTSMQLTSLTSEDSAVYYCARNDYDGGYFDYWGQGTTLTVSS
VL: DVVMTQIPLSLPVSLGDQASISCRSSQSLVHSNGNTYLHWYLQKPGQSPKLLIYTVSNRFSGVPDRFSGSGSGTDFTLKISRLEAEDLGVYFCSQTTHVPWTFGGGTKLEIK
notes: murine IgG
B10: SCT-Fa143 (antibody, V domains shown)
VH: QVQLQQPGAELVRSGTSVKLSCKASGYTFISYWMHWVKQRPGQGLEWIGVIDPSDTNTNYNQKFRGKATLTVDTSSSTAYMQLSSLTSEDSAVYFCARNDYDGGYFDYWGQGTTLTVSS
VL: DVVMTQTPLSLPGSLGDQASISCRSSQSLVHSNGNTYLHWYLQKSGQSPKLLIYKVSNRFSGVPDRFSGSGSGTDFTLKISRVEAEDLGLYFCSQTTHVPWTFGGGTKLEIK
notes: murine IgG
B11: SCT-Fa151 (antibody, V domains shown)
VH: QVQLQQPGSELVRPGTSVKLSCKASGYTFTSYWMHWVKQRPGQGLEWIGVIDPSDNNTHYNQKFTGKATLTVDTSSSTAYMHLSSLTSEDSAVFYCARNDYDGGYFDFWGQGTTLTVSS
VL: DVVMTQTPLSLPVSLGDHASISCRSSQSLVHSNGHTYLHWYLQKPGQSPKLLIDKVSNRFSGVPDRFSGSGSGTDFTLKISRVEAEDLGVYFCSQSTHVPWTFGGGTKLEIK
notes: murine IgG
B12: SCT-Fa142 (antibody, V domains shown)
VH: QVQLQQPGAELVRPGTSVRLSCKASGYSFTIYWMHWVKQRPGQGLEWIGVIDPSTSNTDYNQKFKGKATLTVDTSSSTAYMQLRSLSSEDSAVYYCARNDYDGGYFDYWGQGTTLTVSS
VL: DVVMTQTPLSLPVSLGDQASISCRSSQRLVHSNGNTYLHWYLQKTGQSPKLLIYKVSNRFSGVPDRFSGSGSGTDFTLKISRVEAEDLGVYFCSQSTHVPWTFGGGTKLEIK
notes: murine IgG
B13: SCT-Fa141 (antibody, V domains shown)
VH: QVQLQQPGAELVRPGTSVNLSCKASGYTFTSYWMHWVKQRPGQGLEWLGVIDPSDSNTNYNQKFKGKATLTVDTSSSTAYMQLSSLTSEDSAVYYCSRNDYDGGYFDYWGQGTTLTVSS
VL: DVVMTQTPLSLPVSLGDQASISCRSSQSLVHSNGNTYLHWYLQKPGQSPKLLIYTVSNRFSGVPDRFSGSGSGTDFTLKISRVEAEDLGIYFCSQSTHVPWTFGGGTKLEIK
notes: murine IgG
B14: SCT-Fa138 (antibody, V domains shown)
VH: QVQLQQPGAELVRPGTSVKLSCKASGYTFTRYWMHWVRQRPGQGLEWIGVIDPSSSSTDYNQKFKGKATLTVDTSSSTAYMQLSSLTSEDSAVYYCARNDYDGGYFDYWGQGTTLTVSS
VL: DVVMTQSPLSLPVSLGDQASISCRSSQSLVHSNGITYLHWYLQKPGQSPNLLIYKVSNRFSGVPDRFSGSGSGTDFTLKISRVEAEDLGVYFCSQTTHVPWTFGGGTKLEIK
notes: murine IgG
B15: SCT-Fa082 (antibody, V domains shown)
VH: QGQLQQPGAEVVKPGAAVKLSCKASGYTFTSYWMQWIKQRPGQGLEWIGEIDPSDNYTDYNQNFKGKATLTVDTSSSTAYLQLSSLTSEDSAVYYCAREGAFSSPFAYWGPGTLVTVSS
VL: DILMTQSPSSMSVSLGDTVSIICHASQDIRSNIGWLQQKPGKSFKGLIYHGTNLEDGVPSRFSGSGSGADYSLTISSLESEDFADYYCVQYVQFPRTFGGGTKLEIK
notes: murine IgG
B16: SCT-Fa078 (antibody, V domains shown)
VH: QGQLQQPGAEVVKPGAAVKLSCKASGYTFTSYWMQWIKQRPGQGLDWIGEIDPSDNYTDYNQNFKGKATLTVDTSSNTAYLQLSSLTSEDSAVYYCAREGAFSSPFAYWGPGTLVTVSS
VL: DILMTQSPSSMSVSLGDTVSIICHASQDIRSNIGWLQQKPGKSFKGLIYHGTNLEDGVPSRFSGSGSGADYSLTISSLESEDFADYYCVQYVQFPRTFGGGTKLEIK
notes: murine IgG
B17: SCT-Fa148 (antibody, V domains shown)
VH: QVQLQQPGAEVVKPGASVKLSCKASGYTFTSYWMQWVKQRPGQGLEWIGEIDPSDNYTDYNQNFKGKATLTVDTSSSTAYMQLSSLTSEDSAVYYCAKEGAYSSPFAYWGPGTLVTVSA
VL: DILMTQSPSSMSVSLGDTVTIICHASQDIRSNIGWLRQKPGTSFKGLIYHGTNLEDGVPSRFSGSGSGADYSLTISSLESEDFADYYCVQYVQFPRTFGGGTKLEIK
notes: murine IgG
B18: SCT-Fa081 (antibody, V domains shown)
VH: QGQLQQPGAEVVKPGAAVKLSCKASGYTFTSYWMQWIKQRPGQGLEWIGEIDPSDNYTDYNQNFKGKATLTVDTSSSTAYLQLSSLTSEDSAVYYCAKEGAFSSPFAYWGPGTLVTVSS
VL: DILMTQSPSSMSVSLGDTVSIICHASQDIRSNIGWLQQKPGKSFKGLIYHGTNLEDGVPSRFSGSGSGADYSLTISSLESEDFADYYCVQYVQFPRTFGGGTKLEIK
notes: murine IgG
B19: SCT-Fa080 (antibody, V domains shown)
VH: QGQLQQPGAEVVKPGAAVKLSCKASGYTFTSYWMQWIKQRPGQGLEWIGEIDPSDNYTDYNQHFKGKATLTVDTSSSTAYLQLSSLTSEDSAVYYCAREGAFSSPFAYWGPGTLVTVSS
VL: DILMTQSPSSMSVSLGDTVSIICHASQDIRSNIGWLQQKPGKSFKGLIYHGTNLEDGVPSRFSGSGSGADYSLTISSLESEDFADYYCVQYVQFPRTFGGGTKLEIK
notes: murine IgG
B20: SCT-Fa134 (antibody, V domains shown)
VH: QVQLQQPGAELVRPGSSVKLSCKASGYNFTNYWIDWVKQRPGQGLAWIGDIYPSDNKTHYNQNFKGKATLTVDKSSNTAYMQLSSLTSEDSAVYYCAASMDYWGQGTSVTVSS
VL: DIVMTQSPSSLTVTAGEKVTMSCKSSQSLLNSKNQKNFLTWYQQKPGQPPKLLIYWASTRESGVPDRFTGSASGTDFTLTISSVQAEDLAVYYCQNDYSYPYTFGGGTKLEIK
notes: murine IgG
B21: SCT-Fa135 (antibody, V domains shown)
VH: QVQLQQPGAELVRPGSSVKLSCKASGYNFTSYWIDWVKQRPGQGLEWIGDIYPSDSKTHYNQNFKGKATLTVDKSSNTAYMQLSNLTSEDSAVYYCATSMDYWGQGTSVTVSS
VL: DIVMTQSPSSLTVTAGEKVTMSCKSSQSLLNSKNQKNFLTWYQQKPGQPPKLLIYWASTRESGVPDRFTGSASGTDFTLTISSVQAEDLAVYYCQNDYDYPYTFGGGTKLEIK
notes: murine IgG

Biological target: T1, Human TIM-3 Human Fc tagged protein (human, fluorescently labeled with HiLyte Fluor 555 (sites not given))
T1 construct: Bought construct; also called TIM-3 protein tagged with human Fc; ACROBiosystems catalog no: TM3-H5258
Assay: capture slide probed with labeled TIM-3-Fc;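 note: IgG from single CD138-enriched plasma cells, isolated from lymphocytes, immobilized on a derivatized glass slide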

Binding result, binds:
B1
B2
B3
B4
B5
B6
B7
B8
B9
B10
B11
B12
B13
B14
B15
B16
B17
B18
B19
B20
B21
